Target: PRDM9Cst (Mus musculus (CAST/EiJ)) (UniProt Q96EQ9)
Experiment: EMSA competition
Conditions: 10 mM Tris pH 7.5, 50 mM KCl, 1 mM DTT, 50 ng/ul poly(dI/dC), 0.05% NP-40, 0.5 pmol labelled dsDNA (printed pmol/l), 3 ul E. coli extract in 20 ul, 40 min, 5% …

Sequence of PRDM9Cst (Mus musculus (CAST/EiJ)) (Q96EQ9 whole entry): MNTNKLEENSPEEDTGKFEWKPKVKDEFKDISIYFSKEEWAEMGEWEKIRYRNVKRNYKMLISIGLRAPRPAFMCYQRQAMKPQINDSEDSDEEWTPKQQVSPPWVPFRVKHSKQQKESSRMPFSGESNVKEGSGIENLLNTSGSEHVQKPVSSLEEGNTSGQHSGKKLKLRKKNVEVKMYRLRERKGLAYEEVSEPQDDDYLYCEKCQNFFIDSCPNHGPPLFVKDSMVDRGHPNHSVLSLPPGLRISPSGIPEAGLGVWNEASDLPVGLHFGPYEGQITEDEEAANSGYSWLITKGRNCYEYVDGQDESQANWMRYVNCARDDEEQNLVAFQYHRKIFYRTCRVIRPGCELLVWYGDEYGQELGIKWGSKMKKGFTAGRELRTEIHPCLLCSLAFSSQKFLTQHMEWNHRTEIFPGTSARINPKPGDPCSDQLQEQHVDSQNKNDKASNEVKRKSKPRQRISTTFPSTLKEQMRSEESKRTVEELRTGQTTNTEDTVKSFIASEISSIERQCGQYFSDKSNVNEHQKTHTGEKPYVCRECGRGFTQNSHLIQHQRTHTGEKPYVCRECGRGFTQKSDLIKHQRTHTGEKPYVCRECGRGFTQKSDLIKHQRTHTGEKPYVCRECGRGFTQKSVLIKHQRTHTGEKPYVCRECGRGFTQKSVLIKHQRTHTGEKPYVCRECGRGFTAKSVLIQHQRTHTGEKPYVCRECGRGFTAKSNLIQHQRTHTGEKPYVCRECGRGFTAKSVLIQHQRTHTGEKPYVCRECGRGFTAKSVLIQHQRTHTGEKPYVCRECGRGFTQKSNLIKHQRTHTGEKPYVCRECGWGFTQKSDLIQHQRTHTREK

Sequence | binding signal (fold stronger than CAST sequence) | binding signal (scale: reference)
ATAGTGTGCAGACTTGGACCCTGCCCTTTCTTTACG (double strand) [Hlx1 36 bp B6] | 2.9 | –
ATAAGTGTTCAGACTTGGACTCTGCCCTTCCTTTAC (double strand) [Hlx1 36 bp CAST] | – | 1
